The source of these data is US20240316154A1 (Eli Lilly, published 2024).

One assay deals with T1, Human serum albumin (human, UniProt P02768 25-609).
T1 construct: bought; immobilised on a CM5 chip by amine coupling; also called Human SA
Kind of assay: SPR, SA on chip, VHH 300 nM, 25 C. For orientation: SPR reads the build-up and loss of mass on a sensor chip optically.

The target in assay [1] is T2, Pig serum albumin (pig, UniProt P08835 25-607).
T2 construct: bought; immobilised on a CM5 chip by amine coupling; also called Pig SA
Put plainly: SPR, SA on chip, 25 C.

Assay [2] concerns the target T3, Cow serum albumin (cow, UniProt P02769 25-607).
T3 construct: bought; immobilised on a CM5 chip by amine coupling; also called Cow SA
Put plainly: SPR, SA on chip, 25 C.

For assay [3], the target named is T4, Rat serum albumin (rat, UniProt P02770 25-608).
T4 construct: bought; immobilised on a CM5 chip by amine coupling; also called Rat SA
Kind of assay: SPR, SA on chip, 25 C.

Assay [4] addresses T5, Dog serum albumin (dog, UniProt P49822 25-608).
T5 construct: bought; immobilised on a CM5 chip by amine coupling; also called Dog SA
Put plainly: SPR, SA on chip, 25 C.

In assay [5] the target is T6, Mouse serum albumin (mouse, UniProt P07724 25-608).
T6 construct: bought; immobilised on a CM5 chip by amine coupling; also called Mouse SA
Kind of assay: SPR, SA on chip, 25 C.

For assay [6], the target named is T7, Cynomolgus monkey serum albumin (cynomolgus monkey, UniProt A2V9Z4 25-608).
T7 construct: bought; immobilised on a CM5 chip by amine coupling; also called Cyno SA
Put plainly: SPR, SA on chip, 25 C.

The target of assay [7] is T2, Pig serum albumin. Put plainly: SPR, SA on chip, VHH 300 nM, 25 C.
Method: (§1) Immobilization of SA to a Series S Sensor Chip CM5 surface is performed according to the manufacturer's instructions (amine coupling kit BR-1000-50). […] Human SA is obtained from Sigma Aldrich (St. Louis, MO; Cat. No. A8763). […] Mouse SA is obtained from Sigma Aldrich (Cat. No. A3559). Rat SA is obtained from Sigma Aldrich (Cat. No. A4538). Pig SA is obtained from Sigma Aldrich (Cat. No. A4414). […] Cow SA is obtained from Sigma Aldrich (Cat. No. A7030). The various SAs are covalently immobilized through free amines onto a carboxymethyl dextran-coated sensor chip CM5 targeting a surface density of average approximately 77 (58-98) RU. Excess reactive groups on the surfaces (flow cell 1 and 2) are deactivated by injecting 70 μL of 1 M ethanolamine hydrochloride-NaOH, pH 8.5, at 10 μL/min.
(§2) VHH moieties are diluted in HBS-EP+buffer (10 mM HEPES, pH 7.6, 150 mM NaCl, 3 mM EDTA, and 0.05% Polysorbate 20) at concentrations of 300 nM. 150 μL of sample is individually injected sequentially across the immobilized SAs surface and is dissociated for 600 sec at a flow rate of 50 L/min at 25 C. […] The resulting sensorgrams are analyzed using Biacore 8K Insight Evaluation Software (version 2.0.15.12933) to calculate the dissociation rate (kd).
The target in assay [8] is T3, Cow serum albumin. Kind of assay: SPR, SA on chip, VHH 300 nM, 25 C.
Method: as §1, §2
Assay [9] addresses T4, Rat serum albumin. Put plainly: SPR, SA on chip, VHH 300 nM, 25 C.
Method: as §1, §2
Assay [10] has as its target T5, Dog serum albumin. Kind of assay: SPR, SA on chip, VHH 300 nM, 25 C.
Method: as §1, §2
In assay [11] the target is T7, Cynomolgus monkey serum albumin. Put plainly: SPR, SA on chip, VHH 300 nM, 25 C.
Method: as §1, §2
Assay [12] concerns the target T6, Mouse serum albumin. Kind of assay: SPR, SA on chip, VHH 300 nM, 25 C.
Method: as §1, §2

Method for Human serum albumin: as §1, §2

B1: VHH moiety 12 (MC6.1C22-Y59A) (VHH)
VHH: EVQLLESGGGLVQPGGSLRLSCAASGRYIDETAVAWFRQAPGKEREFVAGIGGGVDITAYADSVKGRFTISRDNSKNTLYLQMNSLRPEDTAVYYCAARPGRPLITSKVADLYPYWGQGTLVTVSS
A word on the koff: it is a measure of how fast the partners let go of each other. Regarding B1, in the assay with Human serum albumin, the koff is 0.011 s⁻¹. Also, the binding result with Pig serum albumin [1], with Cow serum albumin [2], with Rat serum albumin [3], in the assay with Dog serum albumin [4] and in the assay with Mouse serum albumin [5] was “no binding (tested: 300 nM)” throughout.

B2: VHH moiety 15 (MC6.1C22-Y59S) (VHH)
VHH: EVQLLESGGGLVQPGGSLRLSCAASGRYIDETAVAWFRQAPGKEREFVAGIGGGVDITSYADSVKGRFTISRDNSKNTLYLQMNSLRPEDTAVYYCAARPGRPLITSKVADLYPYWGQGTLVTVSS
The molecule B2 gave a dissociation rate constant (koff) with Human serum albumin of 0.0058 s⁻¹. In addition, the binding result in the assay with Pig serum albumin [1], with Cow serum albumin [2], with Rat serum albumin [3], with Dog serum albumin [4] and in the assay with Mouse serum albumin [5] was “no binding (tested: 300 nM)” in each case.

B3: VHH moiety 11 (MC6.1C22-157Q) (VHH)
VHH: EVQLLESGGGLVQPGGSLRLSCAASGRYIDETAVAWFRQAPGKEREFVAGIGGGVDQTYYADSVKGRFTISRDNSKNTLYLQMNSLRPEDTAVYYCAARPGRPLITSKVADLYPYWGQGTLVTVSS
notes: name printed as 157Q
Take B3: the koff with Human serum albumin is 0.0074 s⁻¹. For the same molecule, the binding result in the assay with Pig serum albumin [1], with Cow serum albumin [2], with Rat serum albumin [3], with Dog serum albumin [4] and in the assay with Mouse serum albumin [5] was “no binding (tested: 300 nM)” in each case.

B4: VHH moiety 24 (MC6.1C22-L104G) (VHH)
VHH: EVQLLESGGGLVQPGGSLRLSCAASGRYIDETAVAWFRQAPGKEREFVAGIGGGVDITYYADSVKGRFTISRDNSKNTLYLQMNSLRPEDTAVYYCAARPGRPGITSKVADLYPYWGQGTLVTVSS
Consider B4, for which the binding result (with Pig serum albumin [1]; in the assay with Rat serum albumin [3]; in the assay with Dog serum albumin [4]; in [6]; with Mouse serum albumin [5]) was “no binding (tested: 300 nM)” each time.

B5: VHH moiety 13 (MC6.1C22-Y59E) (VHH)
VHH: EVQLLESGGGLVQPGGSLRLSCAASGRYIDETAVAWFRQAPGKEREFVAGIGGGVDITEYADSVKGRFTISRDNSKNTLYLQMNSLRPEDTAVYYCAARPGRPLITSKVADLYPYWGQGTLVTVSS
Consider B5, for which the binding result (with Pig serum albumin [1]; with Cow serum albumin [2]; with Rat serum albumin [3]; in the assay with Dog serum albumin [4]; in assay [6]; with Mouse serum albumin [5]) was “no binding (tested: 300 nM)” throughout.

B6: VHH moiety 20 (MC6.1C22-P103) (VHH)
VHH: EVQLLESGGGLVQPGGSLRLSCAASGRYIDETAVAWFRQAPGKEREFVAGIGGGVDITYYADSVKGRFTISRDNSKNTLYLQMNSLRPEDTAVYYCAARPGRELITSKVADLYPYWGQGTLVTVSS
notes: name printed without the new residue
In turn, B6 displayed a koff in the assay with Human serum albumin of 0.0092 s⁻¹. Besides, the binding result (in the assay with Pig serum albumin [1]; in the assay with Cow serum albumin [2]; with Rat serum albumin [3]; in assay [6]; in the assay with Mouse serum albumin [5]) was “no binding (tested: 300 nM)” each time.

B7: VHH moiety 17 (MC6.1C22-R102K) (VHH)
VHH: EVQLLESGGGLVQPGGSLRLSCAASGRYIDETAVAWFRQAPGKEREFVAGIGGGVDITYYADSVKGRFTISRDNSKNTLYLQMNSLRPEDTAVYYCAARPGKPLITSKVADLYPYWGQGTLVTVSS
On to B7, for which the koff amounted to 0.013 s⁻¹ in the assay with Pig serum albumin [7]; 0.015 s⁻¹ with Cow serum albumin [8]; 0.0081 s⁻¹ with Rat serum albumin [9]; 0.0082 s⁻¹ in the assay with Dog serum albumin [10]; 0.0022 s⁻¹ in assay [11]; 0.01 s⁻¹ in the assay with Mouse serum albumin [12]. For the same molecule, the koff in the assay with Human serum albumin worked out at 0.0015 s⁻¹.

B8: VHH moiety 8 (MC6.1C22-G26Y) (VHH)
VHH: EVQLLESGGGLVQPGGSLRLSCAASYRYIDETAVAWFRQAPGKEREFVAGIGGGVDITYYADSVKGRFTISRDNSKNTLYLQMNSLRPEDTAVYYCAARPGRPLITSKVADLYPYWGQGTLVTVSS
With B8, the koff in the assay with Pig serum albumin [7] turned out to be 0.0092 s⁻¹; with Cow serum albumin [8], 0.015 s⁻¹; with Rat serum albumin [9] it was 0.0075 s⁻¹; in the assay with Dog serum albumin [10], 0.0022 s⁻¹; in assay [11], 0.003 s⁻¹; in the assay with Mouse serum albumin [12], 0.0032 s⁻¹. Further, in the assay with Human serum albumin, the koff is 0.001 s⁻¹.

B9: VHH moiety 14 (MC6.1C22-Y59Q) (VHH)
VHH: EVQLLESGGGLVQPGGSLRLSCAASGRYIDETAVAWFRQAPGKEREFVAGIGGGVDITQYADSVKGRFTISRDNSKNTLYLQMNSLRPEDTAVYYCAARPGRPLITSKVADLYPYWGQGTLVTVSS
In the assay with Human serum albumin, B9 had a koff of 0.013 s⁻¹. The binding result (in the assay with Pig serum albumin [1]; in the assay with Cow serum albumin [2]; with Rat serum albumin [3]; with Dog serum albumin [4]; in [6]; in the assay with Mouse serum albumin [5]) was “no binding (tested: 300 nM)” in each case.

B10: VHH moiety 27 (MC6.1C22-S107E) (VHH)
VHH: EVQLLESGGGLVQPGGSLRLSCAASGRYIDETAVAWFRQAPGKEREFVAGIGGGVDITYYADSVKGRFTISRDNSKNTLYLQMNSLRPEDTAVYYCAARPGRPLITEKVADLYPYWGQGTLVTVSS
The molecule B10 showed a koff in the assay with Human serum albumin of 0.014 s⁻¹. The binding result (with Pig serum albumin [1]; with Cow serum albumin [2]; with Rat serum albumin [3]; with Dog serum albumin [4]; in [6]; with Mouse serum albumin [5]) was “no binding (tested: 300 nM)” throughout.

B11: VHH moiety 25 (MC6.1C22-L104Q) (VHH)
VHH: EVQLLESGGGLVQPGGSLRLSCAASGRYIDETAVAWFRQAPGKEREFVAGIGGGVDITYYADSVKGRFTISRDNSKNTLYLQMNSLRPEDTAVYYCAARPGRPQITSKVADLYPYWGQGTLVTVSS
As for B11, the binding result (in the assay with Cow serum albumin [2]; in assay [6]) was “no binding (tested: 300 nM)” throughout.

B12: VHH moiety 23 (MC6.1C22-L104E) (VHH)
VHH: EVQLLESGGGLVQPGGSLRLSCAASGRYIDETAVAWFRQAPGKEREFVAGIGGGVDITYYADSVKGRFTISRDNSKNTLYLQMNSLRPEDTAVYYCAARPGRPEITSKVADLYPYWGQGTLVTVSS
On to B12, for which the binding result (in the assay with Pig serum albumin [1]; in the assay with Rat serum albumin [3]; with Dog serum albumin [4]; in assay [6]; with Mouse serum albumin [5]) was “no binding (tested: 300 nM)” throughout.

B13: VHH moiety 26 (MC6.1C22-L104T) (VHH)
VHH: EVQLLESGGGLVQPGGSLRLSCAASGRYIDETAVAWFRQAPGKEREFVAGIGGGVDITYYADSVKGRFTISRDNSKNTLYLQMNSLRPEDTAVYYCAARPGRPTITSKVADLYPYWGQGTLVTVSS
With B13, the binding result (with Pig serum albumin [1]; with Cow serum albumin [2]; in the assay with Rat serum albumin [3]; with Dog serum albumin [4]; in assay [6]; with Mouse serum albumin [5]) was “no binding (tested: 300 nM)” in each case.
